Assay results published in patent US11325966.

Legend:
Assay in all cases: cell-based or functional assay
[1] = target: HIV-1 Env of pseudovirus 1056_10_TA11_1826 (HIV-1)
[2] = target: HIV-1 Env of pseudovirus Du172.17 (HIV-1)
[3] = target: HIV-1 Env of pseudovirus R2184.c04 (HIV-1)
[4] = target: HIV-1 Env of pseudovirus 6952.v1.c20 (HIV-1)
[5] = target: HIV-1 Env of pseudovirus Ce2010_F5 (HIV-1)
[6] = target: HIV-1 Env of pseudovirus 1394C9G1(Rev-) (HIV-1)
[7] = target: HIV-1 Env of pseudovirus Ce1176_A3 (HIV-1)
[8] = target: HIV-1 Env of pseudovirus BJOX028000.10.3 (HIV-1)
[9] = target: HIV-1 Env of pseudovirus 3301.v1.c24 (HIV-1)
[10] = target: HIV-1 Env of pseudovirus 89-F1_2_25 (HIV-1)
[11] = target: HIV-1 Env of pseudovirus BF1266.431a (HIV-1)
[12] = target: HIV-1 Env of pseudovirus BJOX015000.11.5 (HIV-1)
[13] = target: HIV-1 Env of pseudovirus 928-28 (HIV-1)
[14] = target: HIV-1 Env of pseudovirus ZM249M.PL1 (HIV-1)
[15] = target: HIV-1 Env of pseudovirus 9004SS_A3_4 (HIV-1)
[16] = target: HIV-1 Env of pseudovirus ZM109F.PB4 (HIV-1)
[17] = target: HIV-1 Env of pseudovirus C3347.c11 (HIV-1)
[18] = target: HIV-1 Env of pseudovirus X1632_S2_B10 (HIV-1)
[19] = target: HIV-1 Env of pseudovirus TRO.11 (HIV-1)
[20] = target: HIV-1 Env of pseudovirus BJOX025000.01.1 (HIV-1)
[21] = target: HIV-1 Env of pseudovirus 620345.c01 (HIV-1)
[22] = target: HIV-1 Env of pseudovirus T255-34 (HIV-1)
[23] = target: HIV-1 Env of pseudovirus SC05_8C11_2344 (HIV-1)
[24] = target: HIV-1 Env of pseudovirus 3415.v1.c1 (HIV-1)
[25] = target: HIV-1 Env of pseudovirus R3265.c06 (HIV-1)
[26] = target: HIV-1 Env of pseudovirus SC422661.8 (HIV-1)
[27] = target: HIV-1 Env of pseudovirus 7030102001E5(Rev-) (HIV-1)
[28] = target: HIV-1 Env of pseudovirus HIV-0013095-2.11 (HIV-1)
[29] = target: HIV-1 Env of pseudovirus A07412M1.vrc12 (HIV-1)
[30] = target: HIV-1 Env of pseudovirus CNE8 (HIV-1)
[31] = target: HIV-1 Env of pseudovirus Ce0682_E4 (HIV-1)
[32] = target: HIV-1 Env of pseudovirus CNE58 (HIV-1)
[33] = target: HIV-1 Env of pseudovirus 6535.3 (HIV-1)
[34] = target: HIV-1 Env of pseudovirus Q23.17 (HIV-1)
[35] = target: HIV-1 Env of pseudovirus 3016.v5.c45 (HIV-1)
[36] = target: HIV-1 Env of pseudovirus T278-50 (HIV-1)
[37] = target: HIV-1 Env of pseudovirus PVO.4 (HIV-1)
[38] = target: HIV-1 Env of pseudovirus 191821_E6_1 (HIV-1)
[39] = target: HIV-1 Env of pseudovirus 1006_11_C3_1601 (HIV-1)

B1: 10-1074 (antibody, V domains shown)
VH: QVQLQESGPGLVKPSETLSVTCSVSGDSMNNYYWTWIRQSPGKGLEWIGYISDRESATYNPSLNSRVVISRDTSKNQLSLKLNSVTPADTAVYYCATARRGQRIYGVVSFGEFFYYYSMDVWGKGTTVTVSS
VL: SYVRPLSVALGETARISCGRQALGSRAVQWYQHRPGQAPILLIYNNQDRPSGIPERFSGTPDINFGTRATLTISGVEAGDEADYYCHMWDSRSGFSWSFGGATRLTVL
[1]
  IC50 in TZM-bl assay: 0.038 µg/mL
  IC80 in TZM-bl assay: 0.168 µg/mL
[2]
  IC50 in TZM-bl assay: 0.049 µg/mL
  IC80 in TZM-bl assay: 0.194 µg/mL
[3]
  IC50 in TZM-bl assay: > 10 µg/mL
  IC80 in TZM-bl assay: > 10 µg/mL
[4]
  IC50 in TZM-bl assay: 0.023 µg/mL
  IC80 in TZM-bl assay: 0.086 µg/mL
[5]
  IC50 in TZM-bl assay: > 10 µg/mL
  IC80 in TZM-bl assay: > 10 µg/mL
[6]
  IC50 in TZM-bl assay: 0.031 µg/mL
  IC80 in TZM-bl assay: 0.093 µg/mL
[7]
  IC50 in TZM-bl assay: 0.022 µg/mL
  IC80 in TZM-bl assay: 0.07 µg/mL
[8]
  IC50 in TZM-bl assay: > 10 µg/mL
  IC80 in TZM-bl assay: > 10 µg/mL
[9]
  IC50 in TZM-bl assay: 0.018 µg/mL
  IC80 in TZM-bl assay: 0.049 µg/mL
[10]
  IC50 in TZM-bl assay: > 10 µg/mL
  IC80 in TZM-bl assay: > 10 µg/mL
[11]
  IC50 in TZM-bl assay: > 10 µg/mL
  IC80 in TZM-bl assay: > 10 µg/mL
[12]
  IC50 in TZM-bl assay: > 10 µg/mL
  IC80 in TZM-bl assay: > 10 µg/mL
[13]
  IC50 in TZM-bl assay: 0.616 µg/mL
  IC80 in TZM-bl assay: 2.4 µg/mL
[14]
  IC50 in TZM-bl assay: > 10 µg/mL
  IC80 in TZM-bl assay: > 10 µg/mL
[15]
  IC50 in TZM-bl assay: 0.012 µg/mL
  IC80 in TZM-bl assay: 0.032 µg/mL
[16]
  IC50 in TZM-bl assay: > 10 µg/mL
  IC80 in TZM-bl assay: > 10 µg/mL
[17]
  IC50 in TZM-bl assay: > 10 µg/mL
  IC80 in TZM-bl assay: > 10 µg/mL
[18]
  IC50 in TZM-bl assay: > 10 µg/mL
  IC80 in TZM-bl assay: > 10 µg/mL
[19]
  IC50 in TZM-bl assay: 0.011 µg/mL
  IC80 in TZM-bl assay: 0.039 µg/mL
[20]
  IC50 in TZM-bl assay: > 10 µg/mL
  IC80 in TZM-bl assay: > 10 µg/mL
[21]
  IC50 in TZM-bl assay: > 10 µg/mL
  IC80 in TZM-bl assay: > 10 µg/mL
[22]
  IC50 in TZM-bl assay: > 10 µg/mL
  IC80 in TZM-bl assay: > 10 µg/mL
[23]
  IC50 in TZM-bl assay: 0.017 µg/mL
  IC80 in TZM-bl assay: 0.048 µg/mL
[24]
  IC50 in TZM-bl assay: > 10 µg/mL
  IC80 in TZM-bl assay: > 10 µg/mL
[25]
  IC50 in TZM-bl assay: > 10 µg/mL
  IC80 in TZM-bl assay: > 10 µg/mL
[26]
  IC50 in TZM-bl assay: 0.058 µg/mL
  IC80 in TZM-bl assay: 0.368 µg/mL
[27]
  IC50 in TZM-bl assay: 0.009 µg/mL
  IC80 in TZM-bl assay: 0.019 µg/mL
[28]
  IC50 in TZM-bl assay: > 10 µg/mL
  IC80 in TZM-bl assay: > 10 µg/mL
[29]
  IC50 in TZM-bl assay: 0.011 µg/mL
  IC80 in TZM-bl assay: 0.037 µg/mL
[30]
  IC50 in TZM-bl assay: > 10 µg/mL
  IC80 in TZM-bl assay: > 10 µg/mL
[31]
  IC50 in TZM-bl assay: > 10 µg/mL
  IC80 in TZM-bl assay: > 10 µg/mL
[32]
  IC50 in TZM-bl assay: 0.165 µg/mL
  IC80 in TZM-bl assay: 0.476 µg/mL
[33]
  IC50 in TZM-bl assay: 0.007 µg/mL
  IC80 in TZM-bl assay: 0.022 µg/mL
[34]
  IC50 in TZM-bl assay: 0.005 µg/mL
  IC80 in TZM-bl assay: 0.015 µg/mL
[35]
  IC50 in TZM-bl assay: > 10 µg/mL
  IC80 in TZM-bl assay: > 10 µg/mL
[36]
  IC50 in TZM-bl assay: 1.71 µg/mL
  IC80 in TZM-bl assay: > 10 µg/mL
[37]
  IC50 in TZM-bl assay: 0.072 µg/mL
  IC80 in TZM-bl assay: 0.252 µg/mL
[38]
  IC50 in TZM-bl assay: > 10 µg/mL
  IC80 in TZM-bl assay: > 10 µg/mL
[39]
  IC50 in TZM-bl assay: 0.002 µg/mL
  IC80 in TZM-bl assay: 0.006 µg/mL
